Results on three molecules are retold here after patent US20240294624A1, “ANTI-ERYTHROPOIETIN ANTIBODY” (ANDREMACON S.R.L., priority 2021, published 2024).

Assay [1] has as its system primary TMZ-resistant glioblastoma stem cells (GSC-R). The experiment in a line: MTT viability of chemo-resistant cells. To be noted: Homo sapiens, Glioblastoma stem cell, 96 h, read-out: percent survival / viability.
Protocol: In detail, GSCs and U87 parental cell line, which are sensitive to TMZ, were first maintained in low doses of TMZ (25 μM) and then successively exposed for two months to incremental doses of 25 μM of TMZ each time (up to 500 μM). After the killing of a majority of the cells, the surviving cells were maintained until a normal rate of growth were obtained. […] Cell viability was assessed by 3-(4,5-Dimethylthiazol-2-yl)-2,5-Diphenyl-tetrazoliumBromide (MTT) assay, as a function of redox potential (FIG. 24). Cells (5×10^3/well) were seeded and cultured in 96-well plate for 24 h in Basal Medium (BM). Then, culture media were replaced with fresh media containing the specific treatments, or in BM as a control condition (CTR).
Test was performed in triplicate after 96 h of treatment, by replacing culture media with 100 μL of fresh media added with 10 μL of MTT 5 mg/ml in D-PBS. After 4 h of incubation, media were removed and cells were lysed with 100 μL of 2-propanol/formic acid (95:5, by vol) for 10 min. Then, absorbance was read at 570 nm in microplate reader.
The target of another assay is T1, EphB4 (Homo sapiens, UniProt P54760).
T1 sequence (P54760 16-987): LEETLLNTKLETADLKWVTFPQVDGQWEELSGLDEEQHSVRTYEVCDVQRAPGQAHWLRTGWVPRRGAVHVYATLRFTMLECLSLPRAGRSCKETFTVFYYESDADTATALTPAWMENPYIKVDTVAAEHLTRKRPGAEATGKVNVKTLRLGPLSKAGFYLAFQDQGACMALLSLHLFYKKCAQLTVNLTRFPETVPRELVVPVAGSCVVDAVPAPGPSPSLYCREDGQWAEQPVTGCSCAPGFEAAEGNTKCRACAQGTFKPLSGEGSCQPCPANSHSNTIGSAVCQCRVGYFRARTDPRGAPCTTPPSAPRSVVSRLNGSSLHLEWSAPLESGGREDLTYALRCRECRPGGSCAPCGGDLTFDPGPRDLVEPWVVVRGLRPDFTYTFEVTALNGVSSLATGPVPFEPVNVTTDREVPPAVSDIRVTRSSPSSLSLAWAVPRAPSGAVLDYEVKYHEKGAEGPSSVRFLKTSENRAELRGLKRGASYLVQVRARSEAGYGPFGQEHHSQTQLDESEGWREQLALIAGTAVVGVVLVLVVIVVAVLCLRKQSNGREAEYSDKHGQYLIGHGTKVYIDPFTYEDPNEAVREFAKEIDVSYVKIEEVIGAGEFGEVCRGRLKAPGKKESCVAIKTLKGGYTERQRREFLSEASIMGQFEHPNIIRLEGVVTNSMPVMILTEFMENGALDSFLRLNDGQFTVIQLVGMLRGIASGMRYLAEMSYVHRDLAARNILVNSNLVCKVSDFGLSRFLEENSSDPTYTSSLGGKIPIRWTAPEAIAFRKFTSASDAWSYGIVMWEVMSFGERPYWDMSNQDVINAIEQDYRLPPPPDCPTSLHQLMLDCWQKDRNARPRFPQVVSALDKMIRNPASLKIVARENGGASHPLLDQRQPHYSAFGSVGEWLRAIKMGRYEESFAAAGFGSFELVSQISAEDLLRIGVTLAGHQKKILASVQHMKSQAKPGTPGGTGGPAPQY
To be noted: Epo for EphB4; cited from earlier work.

The target in assay [2] is T2, murine EPO (murine, UniProt P07321 27-192, limits assumed).
T2 construct: also called mEPO; m-EPO
T2 sequence (looked up): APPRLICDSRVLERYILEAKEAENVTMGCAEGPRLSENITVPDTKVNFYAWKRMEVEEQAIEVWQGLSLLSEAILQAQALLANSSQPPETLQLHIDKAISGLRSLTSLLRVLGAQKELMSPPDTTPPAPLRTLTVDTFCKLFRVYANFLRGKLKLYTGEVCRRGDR
The assay is described as follows: SPR (ProteOn XPR36), anti-EPO (C4) immobilized by amine coupling, EPO as analyte; murine EPO.

The target in assay [3] is T2, murine EPO. The assay is described as follows: SPR (ProteOn XPR36), anti-EPO (C4) immobilized by amine coupling, EPO as analyte; murine EPO; fitted value.

For the molecule `Cn1nnc2c(C(N)=O)ncn2c1=O` [TMZ, Temozolomide], in assay [1], the viability at 100 µM was approximately 93%. As for “Epo: 30.4 kDa glycoprotein, main erythropoietic hormone”, the Kd (in general, the free concentration of one partner at which half of the binding sites on the other are occupied at equilibrium, for simple one-to-one binding) with EphB4 was 880 nM.

B1: anti-EPO (C4) monoclonal antibody (antibody, V domains shown)
VH: EVKLQESGGGLVQPGGSLKLSCAASGFTFSTYTMSWVRQTPEKRLEWVAYISNGGDRTYYPDTVKGRFTISRDDAKNTLFLQMSSLKSEDTAMYYCARHNITTVPFTMDYWGQGTSVTVSS
VL: DIVLTQSPASLAVSLGQRATISCRASESVDYYGTGLMQWYQQRPGQPPKLLIYGASNVGSGVPARFSGSGSGTDFSLNIHPVEGDDIAMYFCQQTRKVPSTFGGGTKLEIK
notes: also called C4 antibody; anti-EPO (C4) mAB
As to B1, in the assay with murine EPO [2], the off-rate (koff) (as a rule, the first-order rate constant of dissociation) worked out at 0.000669 s⁻¹ and the kon (commonly a measure of how fast the partners come together) is 663 M⁻¹ s⁻¹. For the same molecule, binding with murine EPO [3] was put at a Kd of 1010 nM.
